# Data from patent US20120108492A1, “LIGAND-SPECIFIC NON-ANTIBODY COMPOUNDS THAT INHIBIT CR2 ACTIVATION AND METHODS OF USE THEREOF” (The Regents of the University of Colorado, priority 2008, published 2012).
# What was measured:
# Type in all cases: binding
# [1] = tested on: anti-CR2 SCR1-2 monoclonal antibody 171; test: MBP-CR2 SCR1-2-171 mAb ELISA; conditions: mutant MBP-CR2 SCR1-2 relative to wild-type; for % 171 mAb Binding: plate-bound 171 mAb
# Experimental: See Asokan et al. (2006) J Immunol 177:383-94; Guthridge et al. (2001) J Immunol 167:5758-66; Young et al. (2007) J Biol Chem 282:36614-36625. […] Hannan et al. (2005) J Mol Biol 346:845-58; and Young et al. (2007) J Biol Chem 282:36614-36625.
# (§1) After coating, the plates were blocked using 0.1% BSA in a PBS solution, pH 7.4 for one hour at room temperature. The plates were then washed, and incubated with either wild-type or mutant MBP-CR2 SCR1-2, at concentrations ranging from 0.03125-2.0 μg/ml in PBS for one hour at room temperature. After further washing, wild-type or mutant MBP-CR2 binding was detected using commercially available horseradish peroxidase-conjugated anti-MBP mAb (New England Biolabs) according to the manufacturer's instructions.
# anti-CR2 SCR1-2 mAb 629 = test: MBP-CR2 SCR1-2-629 mAb ELISA; conditions: mutant MBP-CR2 SCR1-2 relative to wild-type; for % 629 mAb Bindng: plate-bound 629 mAb
# Text: The excellent correlation observed between our cell-binding studies and the ELISA analyses provides proof-of-principle that the MBP-CR2 SCR1-2 ELISA is an effective means of characterizing CR2-ligand interactions. […] See Asokan et al. (2006) J Immunol 177:383-94; Guthridge et al. (2001) J Immunol 167:5758-66; Young et al. (2007) J Biol Chem 282:36614-36625. […] This epitope overlaps extensively with the binding surface on CR2 described above for EBV gp350, and also with the previously described binding sites for C3dg and C3d. Hannan et al. (2005) J Mol Biol 346:845-58; and Young et al. (2007) J Biol Chem 282:36614-36625.
# as §1
# EBV gp350 = EBV gp350 (Epstein-Barr virus, UniProt P03200); test: MBP-CR2 SCR1-2 mutant-EBV gp350 ELISA; design: DNA corresponding to residues 1-470 of EBV gp350/220; E. coli biotin carboxyl carrier protein (BCCP) fragment, residues 70-156; hexa-histidine (C); made in house; host or cells: human embryonic kidney 293f freestyle cells (pSecTag2/Hygro B); conditions: mutant MBP-CR2 SCR1-2
# Experimental: See Martin et al. (1991) J Exp Med 174:1299-311; Young et al. (2007) J Biol Chem 282:36614-36625; Guthridge et al. (2001) Biochemistry 40:5931-41; and Sarrias et al. (2001) J Immunol 167:1490-9. […] Young et al. (2007) J Biol Chem 282:36614-36625.
# as §1
# Sequence of EBV gp350 (P03200 1-470): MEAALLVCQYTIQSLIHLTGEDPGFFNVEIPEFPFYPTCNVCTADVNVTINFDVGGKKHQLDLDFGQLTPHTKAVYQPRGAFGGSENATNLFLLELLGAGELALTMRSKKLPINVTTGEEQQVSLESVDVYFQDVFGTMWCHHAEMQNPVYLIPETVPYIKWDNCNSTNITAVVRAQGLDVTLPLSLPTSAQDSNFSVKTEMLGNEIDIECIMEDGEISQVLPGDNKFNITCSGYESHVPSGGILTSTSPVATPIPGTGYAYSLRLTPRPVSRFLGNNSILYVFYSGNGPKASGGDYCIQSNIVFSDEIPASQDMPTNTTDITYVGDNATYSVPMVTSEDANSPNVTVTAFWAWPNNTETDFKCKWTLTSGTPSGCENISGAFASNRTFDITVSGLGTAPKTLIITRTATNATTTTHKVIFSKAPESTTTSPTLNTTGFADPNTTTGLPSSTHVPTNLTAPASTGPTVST
molecule,measurement,setting,value
"R28A: single-site mutant of recombinant MBP-CR2 SCR1-2 (protein, left off: large carriers; small tags and cut ends) ISCGSPPPILNGRISYYSTPIAVGTVIAYSCSGTFRLIGEKSLLCITKDKVDGTWDKPAPKCEYFNKYSSCPEPIVPGGYKIRGSTPYRHGDSVTFACKTNFSMNGNKSVWCQANNMWGPTRLPTCVSVFPLE",Weighting (171 mAb),[1],++++ (++++>90%)
same,% 171 mAb Binding,[1],103.5%
same,Weighting (629 mAb),anti-CR2 SCR1-2 mAb 629,++++ (++++>90%)
same,% 629 mAb Bindng,anti-CR2 SCR1-2 mAb 629,103.1%
same,EBV gp350 binding relative to wild-type CR2,EBV gp350,significantly decreased capacity
"K41A: single-site mutant of recombinant MBP-CR2 SCR1-2 (protein, left off: large carriers; small tags and cut ends) ISCGSPPPILNGRISYYSTPIAVGTVIRYSCSGTFRLIGEASLLCITKDKVDGTWDKPAPKCEYFNKYSSCPEPIVPGGYKIRGSTPYRHGDSVTFACKTNFSMNGNKSVWCQANNMWGPTRLPTCVSVFPLE",Weighting (171 mAb),[1],++++ (++++>90%)
same,% 171 mAb Binding,[1],97.3%
same,Weighting (629 mAb),anti-CR2 SCR1-2 mAb 629,++++ (++++>90%)
same,% 629 mAb Bindng,anti-CR2 SCR1-2 mAb 629,97.5%
same,EBV gp350 binding relative to wild-type CR2,EBV gp350,significantly decreased capacity
"K57A: single-site mutant of recombinant MBP-CR2 SCR1-2 (protein, left off: large carriers; small tags and cut ends) ISCGSPPPILNGRISYYSTPIAVGTVIRYSCSGTFRLIGEKSLLCITKDKVDGTWDAPAPKCEYFNKYSSCPEPIVPGGYKIRGSTPYRHGDSVTFACKTNFSMNGNKSVWCQANNMWGPTRLPTCVSVFPLE",Weighting (171 mAb),[1],++++ (++++>90%)
same,% 171 mAb Binding,[1],91.9%
same,Weighting (629 mAb),anti-CR2 SCR1-2 mAb 629,+++ (+++89.9-70%)
same,% 629 mAb Bindng,anti-CR2 SCR1-2 mAb 629,85.5%
same,EBV gp350 binding relative to wild-type CR2,EBV gp350,significantly decreased capacity
"S32A: single-site mutant of recombinant MBP-CR2 SCR1-2 (protein, left off: large carriers; small tags and cut ends) ISCGSPPPILNGRISYYSTPIAVGTVIRYSCAGTFRLIGEKSLLCITKDKVDGTWDKPAPKCEYFNKYSSCPEPIVPGGYKIRGSTPYRHGDSVTFACKTNFSMNGNKSVWCQANNMWGPTRLPTCVSVFPLE",Weighting (171 mAb),[1],+++ (+++89.9-70%)
same,% 171 mAb Binding,[1],77.5%
same,Weighting (629 mAb),anti-CR2 SCR1-2 mAb 629,++++ (++++>90%)
same,% 629 mAb Bindng,anti-CR2 SCR1-2 mAb 629,117.8%
"T34A: single-site mutant of recombinant MBP-CR2 SCR1-2 (protein, left off: large carriers; small tags and cut ends) ISCGSPPPILNGRISYYSTPIAVGTVIRYSCSGAFRLIGEKSLLCITKDKVDGTWDKPAPKCEYFNKYSSCPEPIVPGGYKIRGSTPYRHGDSVTFACKTNFSMNGNKSVWCQANNMWGPTRLPTCVSVFPLE",Weighting (171 mAb),[1],− (−19.9-0%)
same,% 171 mAb Binding,[1],12.4%
same,Weighting (629 mAb),anti-CR2 SCR1-2 mAb 629,+++ (+++89.9-70%)
same,% 629 mAb Bindng,anti-CR2 SCR1-2 mAb 629,84.9%
"R36A: single-site mutant of recombinant MBP-CR2 SCR1-2 (protein, left off: large carriers; small tags and cut ends) ISCGSPPPILNGRISYYSTPIAVGTVIRYSCSGTFALIGEKSLLCITKDKVDGTWDKPAPKCEYFNKYSSCPEPIVPGGYKIRGSTPYRHGDSVTFACKTNFSMNGNKSVWCQANNMWGPTRLPTCVSVFPLE",Weighting (171 mAb),[1],− (−19.9-0%)
same,% 171 mAb Binding,[1],19.8%
same,Weighting (629 mAb),anti-CR2 SCR1-2 mAb 629,++++ (++++>90%)
same,% 629 mAb Bindng,anti-CR2 SCR1-2 mAb 629,113.9%
"K50A: single-site mutant of recombinant MBP-CR2 SCR1-2 (protein, left off: large carriers; small tags and cut ends) ISCGSPPPILNGRISYYSTPIAVGTVIRYSCSGTFRLIGEKSLLCITKDAVDGTWDKPAPKCEYFNKYSSCPEPIVPGGYKIRGSTPYRHGDSVTFACKTNFSMNGNKSVWCQANNMWGPTRLPTCVSVFPLE",Weighting (171 mAb),[1],++++ (++++>90%)
same,% 171 mAb Binding,[1],94.4%
same,Weighting (629 mAb),anti-CR2 SCR1-2 mAb 629,+++ (+++89.9-70%)
same,% 629 mAb Bindng,anti-CR2 SCR1-2 mAb 629,87.5%
"Y64A: single-site mutant of recombinant MBP-CR2 SCR1-2 (protein, left off: large carriers; small tags and cut ends) ISCGSPPPILNGRISYYSTPIAVGTVIRYSCSGTFRLIGEKSLLCITKDKVDGTWDKPAPKCEAFNKYSSCPEPIVPGGYKIRGSTPYRHGDSVTFACKTNFSMNGNKSVWCQANNMWGPTRLPTCVSVFPLE",Weighting (171 mAb),[1],− (−19.9-0%)
same,% 171 mAb Binding,[1],5.8%
same,Weighting (629 mAb),anti-CR2 SCR1-2 mAb 629,+++ (+++89.9-70%)
same,% 629 mAb Bindng,anti-CR2 SCR1-2 mAb 629,82.0%
"Y68A: single-site mutant of recombinant MBP-CR2 SCR1-2 (protein, left off: large carriers; small tags and cut ends) ISCGSPPPILNGRISYYSTPIAVGTVIRYSCSGTFRLIGEKSLLCITKDKVDGTWDKPAPKCEYFNKASSCPEPIVPGGYKIRGSTPYRHGDSVTFACKTNFSMNGNKSVWCQANNMWGPTRLPTCVSVFPLE",Weighting (171 mAb),[1],++++ (++++>90%)
same,% 171 mAb Binding,[1],92.1%
same,Weighting (629 mAb),anti-CR2 SCR1-2 mAb 629,++++ (++++>90%)
same,% 629 mAb Bindng,anti-CR2 SCR1-2 mAb 629,102.3%
"T86A: single-site mutant of recombinant MBP-CR2 SCR1-2 (protein, left off: large carriers; small tags and cut ends) ISCGSPPPILNGRISYYSTPIAVGTVIRYSCSGTFRLIGEKSLLCITKDKVDGTWDKPAPKCEYFNKYSSCPEPIVPGGYKIRGSAPYRHGDSVTFACKTNFSMNGNKSVWCQANNMWGPTRLPTCVSVFPLE",Weighting (171 mAb),[1],+++ (+++89.9-70%)
same,% 171 mAb Binding,[1],89.6%
same,Weighting (629 mAb),anti-CR2 SCR1-2 mAb 629,+++ (+++89.9-70%)
same,% 629 mAb Bindng,anti-CR2 SCR1-2 mAb 629,85.6%
"M117A: single-site mutant of recombinant MBP-CR2 SCR1-2 (protein, left off: large carriers; small tags and cut ends) ISCGSPPPILNGRISYYSTPIAVGTVIRYSCSGTFRLIGEKSLLCITKDKVDGTWDKPAPKCEYFNKYSSCPEPIVPGGYKIRGSTPYRHGDSVTFACKTNFSMNGNKSVWCQANNAWGPTRLPTCVSVFPLE",Weighting (171 mAb),[1],++++ (++++>90%)
same,% 171 mAb Binding,[1],97.2%
same,Weighting (629 mAb),anti-CR2 SCR1-2 mAb 629,++++ (++++>90%)
same,% 629 mAb Bindng,anti-CR2 SCR1-2 mAb 629,113.8%
"N11A: single-site mutant of recombinant MBP-CR2 SCR1-2 (protein, left off: large carriers; small tags and cut ends) ISCGSPPPILAGRISYYSTPIAVGTVIRYSCSGTFRLIGEKSLLCITKDKVDGTWDKPAPKCEYFNKYSSCPEPIVPGGYKIRGSTPYRHGDSVTFACKTNFSMNGNKSVWCQANNMWGPTRLPTCVSVFPLE",Weighting (171 mAb),[1],+ (+39.9-20%)
same,% 171 mAb Binding,[1],24.1%
same,Weighting (629 mAb),anti-CR2 SCR1-2 mAb 629,+++ (+++89.9-70%)
same,% 629 mAb Bindng,anti-CR2 SCR1-2 mAb 629,87.5%
"R13A: single-site mutant of recombinant MBP-CR2 SCR1-2 (protein, left off: large carriers; small tags and cut ends) ISCGSPPPILNGAISYYSTPIAVGTVIRYSCSGTFRLIGEKSLLCITKDKVDGTWDKPAPKCEYFNKYSSCPEPIVPGGYKIRGSTPYRHGDSVTFACKTNFSMNGNKSVWCQANNMWGPTRLPTCVSVFPLE",Weighting (171 mAb),[1],− (−19.9-0%)
same,% 171 mAb Binding,[1],15.6%
same,Weighting (629 mAb),anti-CR2 SCR1-2 mAb 629,++++ (++++>90%)
same,% 629 mAb Bindng,anti-CR2 SCR1-2 mAb 629,108.1%
